Test results from article PMC5367257 (RNA Biology, 2017).

Experiments:
[1] = biological target: His-PABP-Flag (wild-type full-length human poly(A)-binding protein) (human, UniProt P11940 1-636); assay: pull-down
PABP 2-3 mt = PABP 2-3 mt (human, UniProt P11940 1-175+=[…]+190-636, internal_change); assay: EMSA
WT PABP = WT PABP (human, UniProt P11940 1-636); assay: EMSA

fold increase of binding with eIF4E against without eIF4E [1] [fold]	Binder	Kd (PABP 2-3 mt) [nM]	Kd (WT PABP) [nM]
~3	His-eIF4G-N (truncated human eIF4GI, amino acids 42–653, with the PABP- and eIF4E-binding sites) (domain or fragment) NTPSQPRQHFYPSRAQPPSSAASRVQSAAPARPGPAAHVYPAGSQVMMIPSQISYPASQGAYYIPGQGRSTYVVPTQQYPVQPGAPGFYPGASPTEFGTYAGAYYPAQGVQQFPTGVAPTPVLMNQPPQIAPKRERKTIRIRDPNQGGKDITEEIMSGARTASTPTPPQTGGGLEPQANGETPQVAVIVRPDDRSQGAIIADRPGLPGPEHSPSESQPSSPSPTPSPSPVLEPGSEPNLAVLSIPGDTMTTIQMSVEESTPISRETGEPYRLSPEPTPLAEPILEVEVTLSKPVPESEFSSSPLQAPTPLASHTVEIHEPNGMVPSEDLEPEVESSPELAPPPACPSESPVPIAPTAQPEELLNGAPSPPAVDLSPVSEPEEQAKEVTASMAPPTIPSATPATAPSATSPAQEEEMEEEEEEEEGEAGEAGEAESEKGGEELLPPESTPIPANLSQNLEAAAATQVAVSVPKRRRKIKELNKKEAVGDLLDAFKEANPAVPEVENQPPAGSNPGPESEGSGVPPRPEEADETWDSKEDKIHNAENIQPGEQKYEYKSDQWKPLNLEEKKRYDREFLLGFQFIFASMQKPEGLPHISDVVLDKANKTPLRPLD	–	–
–	AAAAAAAAAAAAAAAAAAAAAAAAA (ssRNA) [poly(A)25 RNA]	~6.9	~5.9
